In paper PMC2234240 (The Journal of Cell Biology, 2008):

Molecular target: T1, GST-Rsa1p (yeast (S. cerevisiae), UniProt Q08932 1-381)
T1 sequence: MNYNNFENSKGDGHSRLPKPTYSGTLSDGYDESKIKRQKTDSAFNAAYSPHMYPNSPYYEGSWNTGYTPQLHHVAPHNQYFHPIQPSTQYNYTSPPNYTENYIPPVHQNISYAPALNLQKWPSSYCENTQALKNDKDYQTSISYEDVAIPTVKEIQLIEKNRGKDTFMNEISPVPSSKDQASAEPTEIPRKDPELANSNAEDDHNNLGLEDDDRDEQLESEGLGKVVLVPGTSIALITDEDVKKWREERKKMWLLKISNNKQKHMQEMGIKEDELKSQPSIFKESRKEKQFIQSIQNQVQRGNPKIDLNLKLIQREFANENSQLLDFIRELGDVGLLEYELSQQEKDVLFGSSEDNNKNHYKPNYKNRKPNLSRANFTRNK
Assay: pull-down

- binding result: binds
B1: recombinant Snu13p (natural protein)
chain: MSAPNPKAFPLADAALTQQILDVVQQAANLRQLKKGANEATKTLNRGISEFIIMAADCEPIEILLHLPLLCEDKNVPYVFVPSRVALGRACGVSRPVIAASITTNDASAIKTQIYAVKDKIETLLI
